B1: Type II secretion system protein E (Xanthomonas campestris pv. campestris), P31742 (parent)
chain: MEQRSAETRIVEALLERRRLKDTDLVRARQLQAESGMGLLALLGRLGLVSERDHAETCAEVLGLPLVDARQLGDTPPEMLPEVQGLSLRFLKQFHLCPVGERDGRLDLWIADPYDDYAIDAVRLATGLPLLLQVGLRSEIDDLIERWYGQGRSAMGTIVETADGDASSTDDIEALRDLASEAPVIRLVNLVIQHAVELRASDIHIEPFESRLKVRYRVDGVLVEGESPPAKLTAAVISRIKIMAKLNIAERRLPQDGRIMLRVQGKELDLRVSTVPTAHGESVVMRLLDRETVVFDFYKLGFTEDFLPQFRKVLEQPHGIMLVTGPTGSGKTTTLYTALSQLNTSDVKIITVEDPVEYQIEGINQIQAKPQIGLDFANALRSIVRQDPDIIMIGEMRDLETARIAIQSALTGHLVLSTLHTNNAAGGITRLLDMGVEDYLLTSTINGILAQRLVRKLDLANAERYAASPEEIERFDLRRLQPDGEIFLYRPRATAAAPTGYLGRTTIVEFLVMNDELRRAVMRRAGMGEIEQLARKSGMRTMYEDGLSKALRGETTIEEVLRVTEDA
partner: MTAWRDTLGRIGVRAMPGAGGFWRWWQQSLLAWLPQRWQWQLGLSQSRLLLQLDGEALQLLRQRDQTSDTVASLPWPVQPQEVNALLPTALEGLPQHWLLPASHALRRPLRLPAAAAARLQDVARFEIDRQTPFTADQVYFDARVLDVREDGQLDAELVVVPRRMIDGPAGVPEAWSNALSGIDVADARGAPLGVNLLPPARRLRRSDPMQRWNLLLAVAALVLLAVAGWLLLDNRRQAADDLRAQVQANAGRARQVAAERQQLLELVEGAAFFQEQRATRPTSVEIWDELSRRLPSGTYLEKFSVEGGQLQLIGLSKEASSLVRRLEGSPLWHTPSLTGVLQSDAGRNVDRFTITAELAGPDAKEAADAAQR

Variants of: B1
Conditions: with gspl_xancp pefL

Variant | effect of a mutation on the interaction
MEQRSAETRIVEALLERRRLKDTDLVRARQLQAESGMGLLALLGRLGLVSERDHAETCAEVLGLPLVDARQLGDTPPEMLPEVQGLSLRFLKQFHLCPVGERDGRLDLWIADPYDDYAIDAVRLATGLPLLLQVGLRSEIDDLIERWYGQGRSAMGTIVETADGDASSTDDIEALRDLASEAPVIRLVNLVIQHAVELRASDIHIEPFESRLKVRYRVDGVLVEGESPPAKLTAAVISRIKIMAKLNIAERRLPQDGRIMLRVQGKELDLRVSTVPTAHGESVVMRLLDRETVVFDFYKLGFTEDFLPQFRKVLEQPHGIMLVTGPTGSGMTTTLYTALSQLNTSDVKIITVEDPVEYQIEGINQIQAKPQIGLDFANALRSIVRQDPDIIMIGEMRDLETARIAIQSALTGHLVLSTLHTNNAAGGITRLLDMGVEDYLLTSTINGILAQRLVRKLDLANAERYAASPEEIERFDLRRLQPDGEIFLYRPRATAAAPTGYLGRTTIVEFLVMNDELRRAVMRRAGMGEIEQLARKSGMRTMYEDGLSKALRGETTIEEVLRVTEDA [K331M] | disrupting interaction
MEQRSAETRIVEALLERRRLKDTDLVRARQLQAESGMGLLALLGRLGLVSERDHAETCAEVLGLPLVDARQLGDTPPEMLPEVQGLSLRFLKQFHLCPVGERDGRLDLWIADPYDDYAIDAVRLATGLPLLLQVGLRSEIDDLIERWYGQGRSAMGTIVETADGDASSTDDIEALRDLASEAPVIRLVNLVIQHAVELRASDIHIEPFESRLKVRYRVDGVLVEGESPPAKLTAAVISRIKIMAKLNIAERRLPQDGRIMLRVQGKELDLRVSTVPTAHGESVVMRLLDRETVVFDFYKLGFTEDFLPQFRKVLEQPHGIMLVTGPTGSGKTTTLYTALSQLNTSDVKIITVEDPVEYQIEGINQIQAKPQIGLDFANALRSIVRQDPDIIMIGEMRDLETARIAIQSALTGHLVLSTLHTNNAAGGITRLLDMGVEDYLLTSTINGILAQRLVRKLDLANAERYAASPEEIERFDLRRLQPDGEIFLYRPRATAAAPTGYLGATTIVEFLVMNDELRRAVMRRAGMGEIEQLARKSGMRTMYEDGLSKALRGETTIEEVLRVTEDA [R504A] | disrupting interaction

Source: IntAct's records for PubMed 16525507
